From patent US20180021429A1 (PHARMA FOODS INTERNATIONAL, published 2018)
Positions count from the first letter of the chain named.

T1: His-tagged mouse FSTL1 (amino acid sequence of mouse FSTL1 used in Examples, SEQ ID NO: 72) (mouse, UniProt Q62356 19-306)
T1 sequence: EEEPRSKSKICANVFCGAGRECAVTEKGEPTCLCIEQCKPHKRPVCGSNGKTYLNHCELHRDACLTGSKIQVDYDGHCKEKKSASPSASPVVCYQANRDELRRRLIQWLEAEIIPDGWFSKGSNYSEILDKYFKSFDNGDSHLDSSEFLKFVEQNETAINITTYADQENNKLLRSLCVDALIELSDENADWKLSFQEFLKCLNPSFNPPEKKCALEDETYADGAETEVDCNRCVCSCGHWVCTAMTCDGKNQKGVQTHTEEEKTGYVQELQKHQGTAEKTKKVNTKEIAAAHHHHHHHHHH

T2: human FSTL1 (construct not stated) (human, UniProt Q12841 21-308)
T2 construct: also called human FSTL1 antigen; FSTL1 (R&D Systems, Inc. Cat#1694-FN-050)
T2 sequence: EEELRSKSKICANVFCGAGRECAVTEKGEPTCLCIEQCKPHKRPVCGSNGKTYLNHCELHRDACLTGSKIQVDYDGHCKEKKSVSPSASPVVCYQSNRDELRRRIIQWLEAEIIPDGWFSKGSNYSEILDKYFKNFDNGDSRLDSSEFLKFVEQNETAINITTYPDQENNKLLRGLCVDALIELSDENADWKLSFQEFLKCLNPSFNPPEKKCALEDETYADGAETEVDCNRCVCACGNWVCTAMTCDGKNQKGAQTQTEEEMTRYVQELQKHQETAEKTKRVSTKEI

B1: anti-FSTL1 antibody clone #13 (chicken-mouse chimeric antibody) (antibody, mouse IgG1, kappa, V domains shown)
VH: AVTLDESGGGLQTPGGGLSLVCKASGFTFSSVTMQWVRQAPGKGLEWVASICSGSSTYYGPAVKGRATISRDNGQNTVRLQLNNLRAEDTATYYCAKIVGRGRWSCTSAAYNIDAWGHGTEVIVSS
VL: ASTQPSSVSANPGETVKITCSGGGNNYGWYQQKSPGSAPVTVIYNNNNRPSNIPSRFSGSKSGSTNTLTITGVQAEDEAVYYCGSYDSSSDSGIFGAGTTLTVLG
B2: anti-FSTL1 antibody clone #33 (chicken-mouse chimeric antibody) (antibody, mouse IgG1, kappa, V domains shown)
VH: AVTLDESGGGLQTPGGGLSLVCKASGFTFSSFNMNWVRQAPGKGLEYVAEISGTGSSTYYGSAVKGRATISRDNGQSTVRLQLNNLRAEDTATYFCARGDGAYSIDAWGHGTEVIVSS
VL: ASTQPSSVSANPGETVEITCSGDSSYYGWFQQKSPGSAPVTVIYDNTNRPSDIPSRFSGSKSGSTATLTITGVRAEDEAVYYCGGYDSSTYDGIFGAGTTLTVLG
B3: anti-FSTL1 antibody clone #5-8 (chicken-mouse chimeric antibody) (antibody, mouse IgG1, kappa, V domains shown)
VH: AVTLDESGGGLQTPGGGLSLVCKGSGFTFSSFNMFWVRQAPGKGLEWVAGIGKDGVPKYGTAVDGRATISKDNGQSTMRLQLNNLRAEDTGTYFCAKAAGGCSYDWCGIYTGDIDTWGHGTEVIVSS
VL: ASTQPSSVSANPGEAVKITCSGGSGSYYGWYQQKSPGSAPVTVIYNNNQRPSDIPSRFSGSKSGSTATLTITGVQAEDEAVYFCGGYDSSTGHGGIFGAGTTLTVLG
B4: anti-FSTL1 antibody clone #8-1 (chicken-mouse chimeric antibody) (antibody, mouse IgG1, kappa, V domains shown)
VH: B3 VH with G17A, T61A, T111A
VL: B3 VL with T91S
B5: anti-FSTL1 antibody clone #6-55 (chicken-mouse chimeric antibody) (antibody, mouse IgG1, kappa, V domains shown)
VH: AVTLDESGGGLQTPGGALSLVCKGSGFTFTSVTMQWVRQAPGKGLEWVASVCSGSSTYYAPAVKGRATISRDNGQSTVRLQLSNLRPEDTGTYYCAKIAGRARWSCTSAAYNIDAWGHGTEVIVSS
VL: ASTQPSSVSAIPGETVKITCSGGGNNYGWYQQRSPGSAPVTVIYYNDNRPSNIPSRFSGSTSGSTSTLTITGVQADDEAIYYCGSWDSNTDSGIFGAGTTLTVLG
notes: also called Anti-FSTL1 mAb (#6-55)
B6: anti-FSTL1 antibody clone #8-7 (chicken-mouse chimeric antibody) (antibody, mouse IgG1, kappa, V domains shown)
VH: B3 VH with T61A, M78L, T111A
VL: B3 VL
B7: anti-FSTL1 antibody clone #5-2 (chicken-mouse chimeric antibody) (antibody, mouse IgG1, kappa, V domains shown)
VH: AVTLDESGGGLQTPGGGLSLVCKGSGFTFSSFNMFWVRQAPGKGLEWVAGVGKDGGTGYGAAVDGRATISKDNGQSTLRLQLNNLRAEDTGTYYCAKAAGGCSYGWCGSYVGDIDAWGHGTEVIVSS
VL: B3 VL
B8: anti-FSTL1 antibody clone #5-43 (chicken-mouse chimeric antibody) (antibody, mouse IgG1, kappa, V domains shown)
VH: B7 VH with V51I, N73S, G105D, S109A, V111T, A116T
VL: B3 VL
B9: anti-FSTL1 antibody clone #8-8 (chicken-mouse chimeric antibody) (antibody, mouse IgG1, kappa, V domains shown)
VH: B3 VH with G17A, T61A, F94Y, D105G, I109A
VL: B3 VL with A76V
B10: anti-FSTL1 antibody clone #5-3 (chicken-mouse chimeric antibody) (antibody, mouse IgG1, kappa, V domains shown)
VH: B3 VH with G17A, T28S, T61A, T111A
VL: ASTQPSSVSANPGETVKITCSGGSGYYYGWYQQKSPGSVPVTVIYNNNNRPSDIPSRFSGSKSGSTGTLTITGVRAEDEAVYYCGGYDNSGTGIFGAGTTLTVLG
B11: anti-FSTL1 antibody clone #5-10 (chicken-mouse chimeric antibody) (antibody, mouse IgG1, V domains shown)
VH: B7 VH with F29L, G58T, K71R, N73S, L78V, N84D, Y94F, G105S, S109A, I114L
VL: ASTQPSSVSANPGETVKITCSGGGSYVGSYYYGWYQQKSPGSAPVTVIYNNNQRPSDIPSRFSGSKSGSTATLTITGVQAEDEAVYFCGGYDSSAGGIFGAGTTLTVLG
B12: humanized #6-55 antibody H(3)-L(1) (IgG1 type) (antibody, V domains shown)
VH: EVQLLESGGGLVQPGGSLRLSCAASGFTFSSVTMQWVRQAPGKGLEFVASVCSGSSTYYAPAVKGRVTISRDNSKNTVYLQMNSLRAEDTAVYYCAKIAGRARWSCTSAAYNIDAWGQGTLVTVSS
VL: SYELTQPPSVSVSPGQTARITCSGGGNNYGWYQQKPGQAPVTVIYYNDNRPSGIPERFSGSNSGSTTTLTISGVQAEDEADYYCGSWDSNTDSGIFGGGTKLTVLG
notes: Human IgG1 constant region; expressed in HEK293; also called h#6-55 H(3)-L(1)

biological target: T1, His-tagged mouse FSTL1 (amino acid …); test: ELISA, mouse FSTL1 coated (FIG. 3B)

Row | Binder | binding result
1 | B1 | binds
2 | B2 | binds
3 | B3 | no binding (tested: antibody diluted from 100 ng/ml)
4 | B4 | binds
5 | B5 | binds

biological target: T2, human FSTL1 (construct not stated); test: SPR (Biacore T-200), captured antibody, human FSTL1 10 µg/ml; as to Dissociation amount (RU): time not given here
Description: (§1) The mouse chimeric antibodies were immobilized onto Sensor Chip CM5 (GE Healthcare Japan Corp., BR-1005-30) using Mouse Antibody Capture Kit (GE Healthcare Japan Corp., BR-1008-38), and their affinity for human FSTL1 was calculated using Biacore T-200 (GE Healthcare Japan Corp.).

Row | Binder | Binding amount (RU) | Dissociation amount (RU)
6 | B1 | 8.7 RU | 0.2 RU
7 | B2 | 10.9 RU | 4.1 RU
8 | B6 | 12.8 RU | 11.8 RU
9 | B7 | 9.2 RU | 7.1 RU
10 | B3 | 6.7 RU | 3.4 RU
11 | B8 | 7 RU | 3.1 RU
12 | B4 | 11.1 RU | 12.3 RU
13 | B9 | 8 RU | 4.7 RU
14 | B10 | 11 RU | 8.8 RU
15 | B11 | 9.8 RU | 12.1 RU
16 | B5 | 11 RU | 1.5 RU

biological target: T2, human FSTL1 (construct not stated); test: as above; remark: another data set of the same source
Description: as §1
(§2) First, the exhaustive activity comparison of the obtained antibodies was conducted with the human FSTL1 concentration fixed to 10 μg/ml (Table 33-1, FIG. 28).

Row | Binder | Binding amount (RU) | Dissociation amount (RU)
17 | B1 | 8.7 RU | 0.2 RU
18 | B2 | 10.9 RU | 4.1 RU
19 | B6 | 12.8 RU | 11.8 RU
20 | B7 | 9.2 RU | 7.1 RU
21 | B3 | 6.7 RU | 3.4 RU
22 | B8 | 7 RU | 3.1 RU
23 | B4 | 11.1 RU | 12.3 RU
24 | B9 | 8 RU | 4.7 RU
25 | B10 | 11 RU | 8.8 RU
26 | B11 | 9.8 RU | 12.1 RU
27 | B5 | 11 RU | 1.5 RU

biological target: T2, human FSTL1 (construct not stated); test: as above; remark: another data set of the same source
Description: as §1, §2

Row | Binder | Binding amount (RU) | Dissociation amount (RU)
28 | B1 | 8.7 RU | 0.2 RU
29 | B2 | 10.9 RU | 4.1 RU
30 | B6 | 12.8 RU | 11.8 RU
31 | B7 | 9.2 RU | 7.1 RU
32 | B3 | 6.7 RU | 3.4 RU
33 | B8 | 7 RU | 3.1 RU
34 | B4 | 11.1 RU | 12.3 RU
35 | B9 | 8 RU | 4.7 RU
36 | B10 | 11 RU | 8.8 RU
37 | B11 | 9.8 RU | 12.1 RU
38 | B5 | 11 RU | 1.5 RU

biological target: T2, human FSTL1 (construct not stated); test: as above; remark: another data set of the same source
Description: as §1, §2

Row | Binder | Binding amount (RU) | Dissociation amount (RU)
39 | B1 | 8.7 RU | 0.2 RU
40 | B2 | 10.9 RU | 4.1 RU
41 | B6 | 12.8 RU | 11.8 RU
42 | B7 | 9.2 RU | 7.1 RU
43 | B3 | 6.7 RU | 3.4 RU
44 | B8 | 7 RU | 3.1 RU
45 | B4 | 11.1 RU | 12.3 RU
46 | B9 | 8 RU | 4.7 RU
47 | B10 | 11 RU | 8.8 RU
48 | B11 | 9.8 RU | 12.1 RU
49 | B5 | 11 RU | 1.5 RU

biological target: T2, human FSTL1 (construct not stated); test: SPR (Biacore T-200), antibody on Human Antibody Capture Kit, human FSTL1 0 to 20 µg/ml
Description: (§3) Nine IgG1-type humanized antibodies of #6-55 were immobilized onto Sensor Chip CM5 (GE Healthcare Japan Corp., BR-1005-30) using Human Antibody Capture Kit (GE Healthcare Japan Corp., BR-1008-38), and their affinity for human FSTL1 was calculated using Biacore T-200 (GE Healthcare Japan Corp.). […] Among the 9 IgG1-type humanized antibodies of #6-55, a clone composed of a combination “H(2)-L(1)” having a […] KD value was selected as a lead antibody.

Row | Binder | Kd
50 | B12 | 26.7 nM

biological target: T2, human FSTL1 (construct not stated); test: as above; remark: another data set of the same source
Description: as §3

Row | Binder | Kd
51 | B12 | 26.7 nM
